# Assay results: PMC2898433
# B1: His-Sil1p (natural protein)
# chain: TILHSSIHSVPSGGEIISAEDLKELEISGNSICVDNRCYPKIFEPRHDWQPILPGQELPGGLDIRINMDTGLKEAKLNDEKNVGDNGSHELIVSSEDMKASPGDYEFSSDFKEMRNIIDSNPTLSSQDIARLEDSFDRIMEFAHDYKHGYKIITHEFALLANLSLNENLPLTLRELSTRVITSCLRNNPPVVEFINESFPNFKSKIMAALSNLNDSNHRSSNILIKRYLSILNELPVTSEDLPIYSTVVLQNVYERNNKDKQLQIKVLELISKILKADMYENDDTNLILFKRNAENWSSNLQEWANEFQEMVQNKSIDELHTRTFFDTLYNLKKIFKSDITINKGFLNWLAQQCKARQSNLDNGLQERDTEQDSFDKKLIDSRHLIFG
# Biological target: GST-Kar2p (S. cerevisiae) (UniProt P16474)
# Assay: pull-down
binder,measurement,value
B1,reduction of binding in the presence of ATP,50%
